The record followed here is patent publication US5827498A, “Tumor affinity peptide, and radioactive diagnostic agent and radioactive therapeutic agent containing the peptide” (Nihon Medi-Physics Co., Ltd., priority 1994, dated 1998).

Where two headings read alike, the source gives them in different places. No end group written: not given here.

The nature of data set [1]: In vitro stability of technetium-99m labeled peptide in human plasma (HPLC). The class given is in vitro ADME. The procedure:
Technetium-99m-peptide-8 obtained in Example 8 was mixed with 10-fold equivalent of human plasma (ROCKLAND Inc.: STERILE PLASMA containing EDTA) and the mixture was incubated at 37° C. A mixture of technetium-99m-peptide-1 obtained in Example 6 was also prepared by the same method.
The mixture was filtered through a 0.2 μm membrane filter 5 minutes and 30 minutes after the mixing, and was subjected to HPLC analysis. In vitro stability was evaluated by comparing the pattern of HPLC with that of peptide-1 before the mixing procedure. The HPLC profiles of technetium-99m-peptide-1 and of each of the above technetium-99m-labeled peptides mixed with plasma at 4° C. at the 5 and 30 minute points and at 37° C. at the 5 and 30 minute points are shown in FIGS. 7, 8, 9, 10, 11, 12, 13, 14 and 15.

A short description of data set [2]: Time course of technetium-99m labeling yield in vitro (HPLC). The format is physicochemical. The procedure:
To 40.3 μmol/300 μl of glucoheptanate was added 130 nmol/50 μl of stannous chloride and 1049 MBq of sodium pertechnetate, and the entire volume was adjusted to 1.3 ml. After stirring, the mixture was left to stand still for 30 minutes at room temperature and then the labeling purity of glucoheptanate was confirmed to be 95% or more by cellulose acetate membrane electrophoresis. 242 MBq/300 μl of the mixture was added to 0.46 μmol/300 μl of peptide-1 obtained in Example 1 and the reaction was completed in a hot water bath at 100° C. in 20 minutes to yield the target technetium-99m-peptide-1. After cooling at room temperature, the peptide was confirmed to have a labeling purity of 98.3% according to HPLC method.
After technetium-99m-peptide-1 obtained in Example 6 and technetium-99m-peptides-2 to 4 obtained by the same method as in Example 6 were left to stand still for 1, 3 and 6 hours, the time course changes of technetium-99m labeling yield of the peptides were studied using liquid chromatography (HPLC method) under the following conditions:
Column: Millipore puresil 5 μm C18 (4.6×150 mm),
Eluent A: 0.1% TFA/purified water,
Eluent B: 0.1% TFA/acetonitrile,
Concentration gradient: 0 min. (10% B)→5 mins. (10% B)→35 mins. (50% B)→45 mins. (75% B).

On the set-up of data set [3]: species or system SD rats (Sprague-Dawley Rats). As to conditions: rat, in vivo. The method, then:
To SD rats (Sprague-Dawley Rats) weighing 140 to 200 grams and previously Ravonal anesthetized, technetium-99m-peptide-1 obtained in Example 6, technetium-99m-peptide-2, 3 and 4 obtained in Example 7, technetium-99m-peptide-5, 6, 7, 8, 9, 10, 11, 12, 13 and KYCAREPPTRTNAYWGQG (hereinafter referred to as "peptide-14") prepared according to the method of Example 6 were each administered to the tail vein in an amount of 35 MBq to 45 MBq. The animals were sacrificed 5, 30, 60 and 180 minutes later to determine distribution ratio of radioactivity in various organs using a single channel counter.

Data set [4] addresses T1, epitope VTSAPDTRPAPGST of mucin core protein conjugated to bovine serum albumin (BSA) (Homo sapiens, UniProt P15941).
T1 construct: made in house; host or cells: chemical peptide synthesis (no expression host)
The class given is binding. The procedure:
The epitope VTSAPDTRPAPGST of mucin core protein, to which the conventional peptide YCAREPPTRTNAYWG is known to bind, was synthesized and further conjugated to bovine serum albumin (BSA). The conjugated peptide was used as an artificial antigen to measure antigen affinity of peptide-14 by radioimmunoassay (RIA). The assay will be described below in detail.
Each 200 μl of 10 μg/ml solution of the artificial antigen in 50 mmol sodium carbonate buffer of a pH of 9.5 was added to each of 2 ml tubes containing polystyrene beads of 6.35 mm in diameter. The tubes were stood still overnight at 4° C. Then, the inside of the tubes was washed three times by a washing agent of 0.05%(v/v) Tween 20 PBS (phosphate buffer saline, pH 7.5). In order to block the portions to which the artificial antigen is not bound of the surface of the polystyrene beads, 200 μl of 1% BSA-PBS was each added to each of the tubes. The tubes were stood still for 3 hours at room temperature. Then, the inside of the tubes was washed three times.
Peptide-14 was diluted to 500, 100, 50, 10, 5, 1, 0.5, 0.1 and 0.05 μg/ml with PBS containing 1% PRIONEX™ (an albumin substitute of Pentapharm, Ltd.). […] Each of the diluted peptide-containing solutions was added to each of the […] tubes, followed by adding thereto 100 μl of the previously-prepared antibody solution. The tubes were stood still for 3 hours. Then, the inside of the tubes was washed three times with the washing agent.
A sheep antimouse antibody labelled with iodine-125 (3.7 MBq/ml, made by Amersham Co.) was diluted 100-fold with 1% BSA-PBS. To each of the tubes, 200 μl of the diluted antimouse antibody was added. Then, the tubes were stood still for 2 hours at 37° C. Then, the inside of the tubes was washed three times with the washing agent, and radioactivity was measured by use of an auto well gammma ray counter.

As for KYCAREPPTRTFAYWGQG [peptide-1], the “% of unidentified radioactive substance in plasma” value in data set [1] (5 mins. later/4° C.) came out at 5.3%; in data set [1] (5 mins. later/37° C.) it was 12.4%; in data set [1] (30 mins. later/4° C.), 40.1%; in data set [1] (30 mins. later/37° C.), 59.4%. In addition, the technetium-99m labeling yield in data set [2] (1 hr. standing after labeling) is reported as no less than 98%; in data set [2] (1 hr. standing after labeling, listed as Peptide-1) it was 98.3%; in data set [2] (3 hr. standing after labeling), 97.2%; in data set [2] (6 hr. standing after labeling), no less than 96%; in data set [2] (6 hr. standing after labeling, listed as Peptide-1), 96.6%.

Regarding KYCAD-REPPTD-RTFAYWGQG [peptide-9], the “radioactivity in liver and small intestines compared with peptides having corresponding L-Arg” value in data set [3] is “reduced percentages of radioactivity in liver and small intestines”.

On to “YCAREPPTRTNAYWG [peptide-2, conventional peptide without N-terminal Lys, used for comparison]”, for which the technetium-99m labeling yield in data set [2] (1 hr. standing after labeling) was 85.5%; in data set [2] (3 hr. standing after labeling), “below 95%”; in data set [2] (3 hr. standing after labeling, listed as Peptide-2), 71.8%; in data set [2] (6 hr. standing after labeling) it was 78.5%.

As for “KYCAREPPTRTNAYWGQG [peptide-14, KYCAREPPTRTNAYWGQG]”, the binding percentage in data set [4] (5.0e-8 g/ml) worked out at 29.517%; in data set [4] (1.0e-7 g/ml), 27.890%; in data set [4] (5.0e-7 g/ml), 42.941%; in data set [4] (1.0e-6 g/ml), 38.129%; in data set [4] (5.0e-6 g/ml) it was 50.293%; in data set [4] (1.0e-5 g/ml) it was 60.056%. In addition, the binding percentage in data set [4] (5.0e-5 g/ml) worked out at 60.869%; in data set [4] (1.0e-4 g/ml), 58.585%; in data set [4] (5.0e-4 g/ml) it was 63.669%.

For KYCAD-REPPTD-RTFAYD-WGQG [peptide-10], in data set [3], the “radioactivity in liver and small intestines compared with peptides having corresponding L-Arg” value is “reduced percentages of radioactivity in liver and small intestines”.

For KYCAD-REPPTRTFAYWGQG [peptide-7], the “radioactivity in liver and small intestines compared with peptides having corresponding L-Arg” value in data set [3] is “reduced percentages of radioactivity in liver and small intestines”.

With YCAREPPTRTFAYWGQG [peptide-4], the technetium-99m labeling yield is on record as 81.5% in data set [2] (1 hr. standing after labeling); “below 95%” in data set [2] (3 hr. standing after labeling); 81.2% in data set [2] (3 hr. standing after labeling, listed as Peptide-4); 79.9% in data set [2] (6 hr. standing after labeling).

Take “YCAREPPTRTFAYWG [peptide-3, peptide without N-terminal Lys, used for comparison]”: the technetium-99m labeling yield was 96.3% in data set [2] (1 hr. standing after labeling); “below 95%” in data set [2] (3 hr. standing after labeling); 88.9% in data set [2] (3 hr. standing after labeling, listed as Peptide-3); 84.4% in data set [2] (6 hr. standing after labeling).
